From patent US20210309718A1 (THERACHON, published 2021) come the findings set out here.

First the molecules themselves.
B2: sFGFR3_Del4-D3 (receptor)
chain: ESLGTEQRVVGRAAEVPGPEPGQQEQLVFGSGDAVELSCPPPGGGPMGPTVWVKDGTGLVPSERVLVGPQRLQVLNASHEDSGAYSCRQRLTQRVLCHFSVRVTDAPSSGDDEDGEDEAEDTGVDTGAPYWTRPERMDKKLLAVPAANTVRFRCPAAGNPTPSISWLKNGREFRGEHRIGGIKLRHQQWSLVMESVVPSDRGNYTCVVENKFGSIRQTYTLDVLERSPHRPILQAGLPANQTAVLGSDVEFHCKVYSDAQPHIQWLKHVEVNGSKVGPDGTPYVTVLKTAGANTTDKELEVLSLHNVTFEDAGEYTCLAGNSIGFSHHSAWLVVLPVSLESNASMSSNT
notes: Secreted form without signal peptide; also called sFGFR3_Del4 with extended Ig-like C2-type domain 3

Assay [1] addresses B2. Description: SPR (Biacore T200), immobilised sFGFR3_Del4-D3, steady state.
Assay [2] addresses B2. Description: SPR (Biacore T200), immobilised sFGFR3_Del4-D3, kinetic fit, 1:1 model.
Assay [3] has as its target B2. Briefly: SPR (Biacore T200), immobilised sFGFR3_Del4-D3, FGF as analyte, 1:1 model, ka1.
The target in assay [4] is T1, human FGF9 (human, UniProt P31371 4-208). Briefly: SPR (Biacore T200), immobilised sFGFR3_Del4-D3, FGF as analyte, 2:1 (conformational change) model, kd1.
The target in assay [5] is T1, human FGF9. Description: SPR (Biacore T200), immobilised sFGFR3_Del4-D3, steady state.
For assay [6], the target named is T1, human FGF9. Briefly: SPR (Biacore T200), immobilised sFGFR3_Del4-D3, kinetic fit, 2:1 model.
The target of assay [7] is T1, human FGF9. Description: SPR (Biacore T200), immobilised sFGFR3_Del4-D3, FGF as analyte, 2:1 (conformational change) model, ka1.
In assay [8] the target is B2. Briefly: SPR (Biacore T200), immobilised sFGFR3_Del4-D3, FGF as analyte, 2:1 (conformational change) model, kd1.
For assay [9], the target named is B2. Description: SPR (Biacore T200), immobilised sFGFR3_Del4-D3, kinetic fit, 2:1 model.
The target of assay [10] is B2. Description: SPR (Biacore T200), immobilised sFGFR3_Del4-D3, FGF as analyte, 2:1 (conformational change) model, ka1.
Assay [11] concerns the target B2. Description: SPR (Biacore T200), immobilised sFGFR3_Del4-D3, FGF as analyte, 2:1 (conformational change) model, kd2.

B1: human FGF18 (ligand)
chain: EENVDFRIHVENQTRARDDVSRKQLRLYQLYSRTSGKHIQVLGRRISARGEDGDKYAQLLVETDTFGSQVRIKGKETEFYLCMNRKGKLVGKPDGTSKECVFIEKVLENNYTALMSAKYSGWYVGFTKKGRPRKGPKTRENQQDVHFMKRYPKGQPELQKPFKYTTVTKRSRRIRPTHPA
notes: also called hFGF18; fibroblast growth factor 18
As to B1, the Kd was found to be 6.4 nM in the assay with sFGFR3_Del4-D3 [1] and 4.5 nM in the assay with sFGFR3_Del4-D3 [2]. In the assay with sFGFR3_Del4-D3 [3], the kon is 200000 M⁻¹ s⁻¹.

In turn, B2 came in with a koff in the assay with human FGF9 [4] of 0.026 s⁻¹. Also, the values for the Kd with human FGF9 [5] and with human FGF9 [6] were 3.6 nM and 1.8 nM, respectively. The kon with human FGF9 [7] was determined as 2.3e+06 M⁻¹ s⁻¹.

B3: human FGF21 (ligand)
chain: HPIPDSSPLLQFGGQVRQRYLYTDDAQQTEAHLEIREDGTVGGAADQSPESLLQLKALKPGVIQILGVKTSRFLCQRPDGALYGSLHFDPEACSFRELLLEDGYNVYQSEAHGLPLHLPGNKSPHRDPAPRGPARFLPLPGLPPALPEPPGILAPQPPDVGSSDPLSMVGPSQGRSPSYAS
notes: also called hFGF21; fibroblast growth factor 21
With B3, the koff with sFGFR3_Del4-D3 [8] was determined as 0.0055 s⁻¹. For the same molecule, the Kd with sFGFR3_Del4-D3 [9] came to 28000 nM. In the assay with sFGFR3_Del4-D3 [10], this molecule displayed a kon of 258 M⁻¹ s⁻¹. For the same molecule, the kd2 with sFGFR3_Del4-D3 [11] was determined as 0.0014 s⁻¹.
